The target of experiment [1] is apical domain of CD71 (Screen 3: 'cynomolgus apical domain of human CD71') (cynomolgus (as paragraph 454 words it; ambiguous)). The experiment can be described thus: primary ELISA, RLU ratio to HSA. On the technique in general: ELISA stands for enzyme-linked immunosorbent assay.
For experiment [2] the target is unchanged. The experiment can be described thus: primary ELISA.

For 33 molecules, Apical domain:HSA and RLU results are on record in patent publication US20260151494A1.

B1: CD71-binding FN3 domain SEQ ID NO: 332 (designed binder)
chain: MSLPAPKNLVVSRVTEDSARLSWTAPDAAFDSFEIGYWEGPGGGEAIILVVPGSERSYDLTGLKPGTEYYVQIGGVKGGDWSTPLWATFTT
For B1, in experiment [1], the Apical domain:HSA is 380. This molecule displayed an RLU in experiment [2] of 4.94e+06 RLU.

B2: CD71-binding FN3 domain SEQ ID NO: 306 (designed binder)
chain: MSLPAPKNLVVSRVTEDSARLSWTAPDAAFDSFEIGHFENLYLGEAIVLTVPGSERSYDLTGLKPGIEYWVQIGGVKGGVWSVSLSAIFTT
For B2, the Apical domain:HSA in experiment [1] was determined as 320. In experiment [2], this molecule showed an RLU of 4.74e+06 RLU.

B3: CD71-binding FN3 domain SEQ ID NO: 319 (designed binder)
chain: MSLPAPKNLVVSRVTEDSARLSWTAPGAAFDSFEIGYFENLYLGEAIVLTVPGSERSYDLTGLKPGTEYWVQIGGVKGGVWSVPLSAIFTT
With B3, the Apical domain:HSA in experiment [1] worked out at 187. The molecule further showed an RLU in experiment [2] of 4.57e+06 RLU.

B4: CD71-binding FN3 domain SEQ ID NO: 320 (designed binder)
chain: MSLPVPKNLVVSRVTEDSARLSWTAPDAAFDSFEIGYWENAYKGEAIVLTVPGSERSYDLTGLKPGTEYWVQIGGVKGGNWSAPLSAIFTT
For B4, the Apical domain:HSA in experiment [1] turned out to be 290. Besides, the RLU in experiment [2] turned out to be 3.99e+06 RLU.

B5: CD71-binding FN3 domain SEQ ID NO: 311 (designed binder)
chain: MSLPAPKNLVVSRVTEDSARLSWTAPDAAFDSFEIGYWENAYKGEAIVLTVPGSERSYDLTGLKPGTEYVVFIGGVKGGSWSNPLSAIFTT
Turning to B5, the Apical domain:HSA in experiment [1] amounted to 260. In experiment [2], this molecule showed an RLU of 4.66e+06 RLU.

B6: CD71-binding FN3 domain SEQ ID NO: 308 (designed binder)
chain: MSLPAPKNLVVSRVTEDSARMSWTTPDAAFDSFEIGYFENLYLGEAIVLTVPGSERSYDLTGLKPGTEYWVQIGGVKGGNWSAPLSAIFTT
Regarding B6, the Apical domain:HSA in experiment [1] worked out at 188. This molecule also displayed an RLU in experiment [2] of 5.26e+06 RLU.

B7: CD71-binding FN3 domain SEQ ID NO: 324 (designed binder)
chain: MSLPAPKNLVVSRITEDSARLSWTAPDAAFDSFEIGYFENLYLGEAIVLTVPGSERSYDLTGLKPGTEYWVQIGGVKGGNWSAPLSAISTT
Turning to B7, in experiment [1], the Apical domain:HSA came out at 462. For the same molecule, in experiment [2], the RLU is 4.92e+06 RLU.

B8: CD71-binding FN3 domain SEQ ID NO: 326 (designed binder)
chain: MSLPAPKNLVVSRVTEDSARLSWTAPDAAFDSFEIGYWENAYKGEAIVLTVPGSERSYDLTGLKPGTEYWVQIGGVKGGVWSTPLSAIFTT
Take B8: the Apical domain:HSA in experiment [1] is 215. Further, in experiment [2], the RLU is 4.07e+06 RLU.

B9: CD71-binding FN3 domain SEQ ID NO: 310 (designed binder)
chain: MSLPAPKNLVVSRVTEDSARLSWTAPDAAFDSFEIDYGEYSQAGEAIGLLVPGSERSYDLTGLKPGTEYAVWIGGVKGGFFSTPLEADFTT
As to B9, the Apical domain:HSA in experiment [1] turned out to be 168. Also, the RLU in experiment [2] was 4.83e+06 RLU.

B10: CD71-binding FN3 domain SEQ ID NO: 314 (designed binder)
chain: MGSLPAPKNLVVSRVTEDSARLSWTAPDAAFDSFEIGYFENLYLGEAIVLTVPGSERSYDLTGLKPGTEYWVQIGGVKGGNWSAPLSAIFTT
As for B10, the Apical domain:HSA in experiment [1] was 427. The same molecule came in with an RLU in experiment [2] of 5.25e+06 RLU.

B11: CD71-binding FN3 domain SEQ ID NO: 331 (designed binder)
chain: MSLPAPKNLVVSRVTEDSARLSWTAPDAAFDSFFIGYLEPQPPGEAIHLYVPGSERSYDLTGLKPGTEYNVTIQGVKVGFPSEPLIANFTT
For B11, the Apical domain:HSA in experiment [1] stood at 701. Moreover, the RLU in experiment [2] is 6.24e+06 RLU.

B12: CD71-binding FN3 domain SEQ ID NO: 333 (designed binder)
chain: MSLPAPENLVVSRVTEDSARLSWTAPDAAFDSFFIGYLEPQPPGEAIALYVPGSERSYDLTGLKPGTEYNVTIQGVKGGFPSLPLVATFTT
Consider B12, for which the Apical domain:HSA in experiment [1] stood at 171. In experiment [2], this molecule yielded an RLU of 6.2e+06 RLU.

B13: CD71-binding FN3 domain SEQ ID NO: 303 (designed binder)
chain: MSLPAPKNLVVSRVTEDSARLSWTAPDAAFDSFWIEYWEGWKSGEAIVLTVPGSERSYDLTGLKPGTEYRVHIWGVKGGIVSWPLSAIFTT
Consider B13, for which the Apical domain:HSA in experiment [1] was determined as 636. In experiment [2], this molecule gave an RLU of 5.6e+06 RLU.

B14: CD71-binding FN3 domain SEQ ID NO: 297 (designed binder)
chain: MSLPAPKNLVVSRVTEDSARLSWTAPDAAFDSFEISYFENTWYGEAIVLTVPGSERSYDLTGLKPGTEYSVRIFGVKGGNFSFPLSAIFTT
As for B14, the Apical domain:HSA in experiment [1] amounted to 1030. In addition, in experiment [2], the RLU was 5.29e+06 RLU.

B15: CD71-binding FN3 domain SEQ ID NO: 307 (designed binder)
chain: MSLPAPKNLVVSRVTEDSARLSWTAPDAAFNSFEIGYFENLYLGEAIVLTVPGSERSYDLTGLKPGTEYWVQIGGVKGGTFSAPLSAIFTT
As for B15, the Apical domain:HSA in experiment [1] was determined as 72. The molecule also displayed an RLU in experiment [2] of 5.36e+06 RLU.

B16: CD71-binding FN3 domain SEQ ID NO: 313 (designed binder)
chain: MSLPAPKNLVVSRVTEDSARLSWTAPDAAFDSFEIAYFENDWAGEAIVLTIPGSERSYDLTGLKPGTEYWVQIGGVKGGNWSAPLSAIFTT
Turning to B16, the Apical domain:HSA in experiment [1] was 835. The same molecule yielded an RLU in experiment [2] of 5.17e+06 RLU.

B17: CD71-binding FN3 domain SEQ ID NO: 328 (designed binder)
chain: MSLPAPKNLVVSRVTEDSARLSWTAPDAAFDSFEIGYFGNLYLGEAIVLTVPGSERSYDLTGLKPGTEYWVQIGGVKGGNWSAPLSAIFTT
With B17, the Apical domain:HSA in experiment [1] stood at 42. The molecule further had an RLU in experiment [2] of 3.7e+06 RLU.

B18: CD71-binding FN3 domain SEQ ID NO: 316 (designed binder)
chain: MSLPAPKNLVISRVTEDSARLSWTAPDAAFDSFEIGYFENLYLGEAIVLTVPGSERSYDLTGLKPGTEYWVQIGGVKGGNWSAPLSAIFTT
Take B18: the Apical domain:HSA in experiment [1] worked out at 442. Further, the RLU in experiment [2] amounted to 4.44e+06 RLU.

B19: CD71-binding FN3 domain SEQ ID NO: 299 (designed binder)
chain: MSLPAPKNLVVSRVTEDSARLSWTAPDAAFDSFEIAYFENLYLGEAIVLTVPGSERSYDLTGLKPGTEYWVQIGGVKGGNWSAPLSAIFTT
For the molecule B19, the Apical domain:HSA in experiment [1] was found to be 614. For the same molecule, the RLU in experiment [2] is 5.35e+06 RLU.

B20: CD71-binding FN3 domain SEQ ID NO: 315 (designed binder)
chain: MSLPAPKNLVVSRVTEDSARLSWTAPDAAFDSFEIGYFENLYLGEAIVLTVPGSERSYDLTGLKPGTEYWVQIGGVKGGNWSAPLSAISTT
Turning to B20, the Apical domain:HSA in experiment [1] worked out at 73. Moreover, in experiment [2], the RLU stood at 4.4e+06 RLU.

B21: CD71-binding FN3 domain SEQ ID NO: 312 (designed binder)
chain: MSLPAPKNLVVSRVTEDSARLSWTAPDAAFDSFEIGYFENLYLGEAIVLTIPGSERSYDLTGLKPGTEYWVQIGGVKGGNWSAPLSAIFTT
Take B21: the Apical domain:HSA in experiment [1] is 556. The molecule also yielded an RLU in experiment [2] of 5.31e+06 RLU.

B22: CD71-binding FN3 domain SEQ ID NO: 325 (designed binder)
chain: MSLPAPKNLVVSRVTEDSARLSWTAPDAAFDSFEIGYFENLYLGEAIVLTVPGSERSYDLTGLKPGTEYWVQIGGVKGGNWSAPLSEIFTT
On to B22, for which the Apical domain:HSA in experiment [1] was determined as 205. The RLU in experiment [2] amounted to 4.37e+06 RLU.

B23: CD71-binding FN3 domain SEQ ID NO: 330 (designed binder)
chain: MSLPAPKNLVVSRVTEDSARLSWTAPDAAFDSFEIGYFENLYLGEAIVLTVPGSERSYDLTGLKPGTEYWVQIGGVKGGNWSAPLSAIVTT
As to B23, in experiment [1], the Apical domain:HSA came to 92. The same molecule gave an RLU in experiment [2] of 4.31e+06 RLU.

B24: CD71-binding FN3 domain SEQ ID NO: 301 (designed binder)
chain: MSLPAPKNLVVSRVTEDSARLSWTTPDAAFDSFEIGYFENLYLGEAIVLTVPGSERSYDLTGLKPGTEYWVQIGGVKGGNWSAPLSAIFTT
As for B24, the Apical domain:HSA in experiment [1] was found to be 216. This molecule returned an RLU in experiment [2] of 4.53e+06 RLU.

B25: CD71-binding FN3 domain SEQ ID NO: 323 (designed binder)
chain: MSLPAPKNLVVSRVTEDSARLSWTAPDAAFDSFEIGYFENLYLGEAIVLTVPGSERSYDLTGLKPGTEYWVQIGGVKGGNWSGPLSAIFTT
Take B25: the Apical domain:HSA in experiment [1] came to 95. The molecule also returned an RLU in experiment [2] of 4.22e+06 RLU.

B26: CD71-binding FN3 domain SEQ ID NO: 309 (designed binder)
chain: MSLPAPENLVVSRVTEDSARLSWTAPDAAFDSFEIGYFENLYLGEAIVLTVPGSERSYDLTGLKPGTEYWVQIGGVKGGNWSAPLSAIFTT
In the case of B26, the Apical domain:HSA in experiment [1] worked out at 452. For the same molecule, the RLU in experiment [2] is 5.62e+06 RLU.

B27: CD71-binding FN3 domain SEQ ID NO: 329 (designed binder)
chain: MSLPAPKNLVVSRVTEDSARLSWTAPDAAFDSFDIGYFEATYYGEAIVLTVPGSERSYDLTGLKPGTEYRVWIGGVKGGYYSNPLSAIFTT
On to B27, for which, in experiment [1], the Apical domain:HSA was 128. Also, the RLU in experiment [2] amounted to 4.64e+06 RLU.

B28: CD71-binding FN3 domain SEQ ID NO: 300 (designed binder)
chain: MSLPAPKNLVVSRVTEDSARLSWTAPDAAFDSFEIGYFEATPNGEAIVLTVPGSERSYDLTGLKPGTEYKVFIGGVKGGRWSKPLSAIFTT
As to B28, in experiment [1], the Apical domain:HSA turned out to be 406. The RLU in experiment [2] worked out at 5.57e+06 RLU.

B29: CD71-binding FN3 domain SEQ ID NO: 327 (designed binder)
chain: MSLPAPKNLVVSRVTEDSARLSWTAPDAAFDSFEIGYWENAYKGEAIVLTVPGSERSYDLTGLKPGTEYWVQIGGVKGGNWSAPLSAIFTT
Regarding B29, in experiment [1], the Apical domain:HSA amounted to 227. The same molecule returned an RLU in experiment [2] of 4.24e+06 RLU.

B30: CD71-binding FN3 domain SEQ ID NO: 322 (designed binder)
chain: MSLPAPKNLVVSRVTEDSARLSWTAPDAAFDSFEIGYFEITRYGEAIILFVPGSERSYDLTGLKPGTEYWVQIGGVKGGNWSAPLSAIFTT
For B30, the Apical domain:HSA in experiment [1] turned out to be 252. In experiment [2], this molecule gave an RLU of 4.99e+06 RLU.

B31: CD71-binding FN3 domain SEQ ID NO: 305 (designed binder)
chain: MSLPAPKNLVVSRVTEDSARLSWTAPDAAFDSFEIAYFEQTYTGEAIVLTVPGSERSYDLTGLKPGTEYWVQIGGVKGGNWSAPLSAIFTT
Turning to B31, in experiment [1], the Apical domain:HSA worked out at 495. In experiment [2], this molecule displayed an RLU of 5.69e+06 RLU.

B32: CD71-binding FN3 domain SEQ ID NO: 304 (designed binder)
chain: MSLPAPKNLVVSRVTEDSARLSWTAPDAAFDSFEIGYFENLYLGEAIVLTVPGSERSYDLTGLKPGTEYVVFIGGVKGGVWSVPLSAIFTT
B32: the Apical domain:HSA in experiment [1] was 446. The RLU in experiment [2] was found to be 5.5e+06 RLU.

B33: CD71-binding FN3 domain SEQ ID NO: 298 (designed binder)
chain: MSLPAPKNLVVSRVTEDSARLSWTAPDAAFDSFEIGYFENLYLGEAIVLTVPGSERSYDLTGLKPGTEYWVQIGGVKGDNWSAPLSAIFTT
With B33, the Apical domain:HSA in experiment [1] stood at 414. In experiment [2], this molecule displayed an RLU of 5.3e+06 RLU.
